Target: SNAP-25 (endogenous, human induced neurons) (human) (UniProt P60880)
Test: cell-based or functional assay

Sequence of SNAP-25 (endogenous, human induced neurons) (human) (P60880 whole entry): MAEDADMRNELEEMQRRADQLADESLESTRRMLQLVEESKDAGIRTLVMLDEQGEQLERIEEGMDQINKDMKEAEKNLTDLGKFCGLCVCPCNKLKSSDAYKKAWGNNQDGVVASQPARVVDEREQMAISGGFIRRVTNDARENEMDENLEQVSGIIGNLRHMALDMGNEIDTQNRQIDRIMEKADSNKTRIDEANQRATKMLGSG

endogenous CSPα of ANCL patient-derived induced neurons (iNs), which co-express the CSPα^WT and CSPα^L116Δ alleles (from UniProt Q9H3Z4 1-198; Q9H3Z4 1-198)
SNAP-25 degradation half-life, cycloheximide chase in iNs: 12.5 h | SNAP-25 half-life after L1 or Dfx treatment against control, cycloheximide chase in ANCL iNs: 2 fold

Reference: US20210290602A1
